Test results reported in US5928893.

Legend:
[1] = biological target: human 4-1BB on T cells (human) (UniProt Q07011); test: flow cytometry, human CD8+ T cells activated with Con A for 24 hours
[2] = biological target: human 4-1BB on T cells (human) (UniProt Q07011); test: flow cytometry, normal (non-activated) human CD8+ T cells
[3] = biological target: human 4-1BB on T cells (human) (UniProt Q07011)
[4] = biological target: human 4-1BB on T cells (human) (UniProt Q07011); test: flow cytometry, synovial lymphocyte CD8+ T cells, rheumatoid arthritis patient 2
[5] = biological target: human 4-1BB on T cells (human) (UniProt Q07011); test: flow cytometry, normal (non-activated) human CD4+ T cells
[6] = biological target: human 4-1BB on T cells (human) (UniProt Q07011); test: flow cytometry, human CD4+ T cells activated with Con A for 24 hours
[7] = biological target: human 4-1BB on T cells (human) (UniProt Q07011); test: flow cytometry, PBL CD8+ T cells, rheumatoid arthritis patient
[8] = biological target: human 4-1BB on T cells (human) (UniProt Q07011); test: flow cytometry, PBL CD8+ T cells, rheumatoid arthritis patient 2
[9] = biological target: human 4-1BB on T cells (human) (UniProt Q07011); test: flow cytometry, PBL CD4+ T cells, rheumatoid arthritis patient 2
[10] = biological target: human 4-1BB on T cells (human) (UniProt Q07011); test: flow cytometry, PBL CD4+ T cells, rheumatoid arthritis patient
[11] = biological target: human 4-1BB on T cells (human) (UniProt Q07011); test: flow cytometry, synovial lymphocyte CD4+ T cells, rheumatoid arthritis patient
[12] = biological target: human 4-1BB on T cells (human) (UniProt Q07011); test: flow cytometry, synovial lymphocyte CD8+ T cells, rheumatoid arthritis patient
[13] = biological target: human 4-1BB on T cells (human) (UniProt Q07011); test: flow cytometry, synovial lymphocyte CD4+ T cells, rheumatoid arthritis patient 2

% of CD8+ T cells showing positive responses [1]: 89%
% of CD8+ T cells showing positive responses [2]: 36%
suppression rate (%) of one way-allogeneic mixed lymphocyte reaction (3H-thymidine uptake) [3]: 67%
% of T Cells Showing Reactivity with 4B4-1-1 [4]: 42.4%
% of CD4+ T cells showing positive responses [5]: 17%
% of CD4+ T cells showing positive responses [6]: 72%
% of T Cells Showing Reactivity with 4B4-1-1 [7]: 12.7%
% of T Cells Showing Reactivity with 4B4-1-1 [8]: 43.5%
% of T Cells Showing Reactivity with 4B4-1-1 [9]: 20%
% of T Cells Showing Reactivity with 4B4-1-1 [10]: 2.2%
% of T Cells Showing Reactivity with 4B4-1-1 [11]: 11.3%
% of T Cells Showing Reactivity with 4B4-1-1 [12]: 68.1%
% of T Cells Showing Reactivity with 4B4-1-1 [13]: 38%
Substance: monoclonal antibody 4B4-1-1
